The experiment has as its target BrxR from Escherichia fergusonii ATCC 35469 plasmid pEFER (Escherichia fergusonii ATCC 35469). Description: SEC. A general note: In gel filtration, larger molecules generally elute earlier.

On to “BrxR from Escherichia fergusonii ATCC 35469 plasmid pEFER (natural protein)”, for which the stoichiometry N (in general, a count of units in the complex or per binding partner) came to 2.

Values taken from paper doi:10.1101/2021.12.19.473342.
